Source: patent US20250340655A1, “EPHA2-TARGETING ANTIBODIES AND THEIR APPLICATIONS IN CANCER TREATMENT” (TAIPEI MEDICAL UNIVERSITY, priority 2022, published 2025)

Columns and labels:
[1] = target: T1, endogenous EphA2 molecules on the four brain tumor cell lines (GBM8901, LN229, T98G and U87MG) (Homo sapiens, UniProt P29317); test: Flow cytometry binding on brain tumor cell lines; details: flow cytometry (FIG. 16B)
T1 construct: identifying endogenous EphA2 molecules on the four strains of brain tumor cell lines; endogenous in cells; host or cells: GBM8901, LN229, T98G, U87MG
T1 sequence (P29317 24-976, stated change not applied): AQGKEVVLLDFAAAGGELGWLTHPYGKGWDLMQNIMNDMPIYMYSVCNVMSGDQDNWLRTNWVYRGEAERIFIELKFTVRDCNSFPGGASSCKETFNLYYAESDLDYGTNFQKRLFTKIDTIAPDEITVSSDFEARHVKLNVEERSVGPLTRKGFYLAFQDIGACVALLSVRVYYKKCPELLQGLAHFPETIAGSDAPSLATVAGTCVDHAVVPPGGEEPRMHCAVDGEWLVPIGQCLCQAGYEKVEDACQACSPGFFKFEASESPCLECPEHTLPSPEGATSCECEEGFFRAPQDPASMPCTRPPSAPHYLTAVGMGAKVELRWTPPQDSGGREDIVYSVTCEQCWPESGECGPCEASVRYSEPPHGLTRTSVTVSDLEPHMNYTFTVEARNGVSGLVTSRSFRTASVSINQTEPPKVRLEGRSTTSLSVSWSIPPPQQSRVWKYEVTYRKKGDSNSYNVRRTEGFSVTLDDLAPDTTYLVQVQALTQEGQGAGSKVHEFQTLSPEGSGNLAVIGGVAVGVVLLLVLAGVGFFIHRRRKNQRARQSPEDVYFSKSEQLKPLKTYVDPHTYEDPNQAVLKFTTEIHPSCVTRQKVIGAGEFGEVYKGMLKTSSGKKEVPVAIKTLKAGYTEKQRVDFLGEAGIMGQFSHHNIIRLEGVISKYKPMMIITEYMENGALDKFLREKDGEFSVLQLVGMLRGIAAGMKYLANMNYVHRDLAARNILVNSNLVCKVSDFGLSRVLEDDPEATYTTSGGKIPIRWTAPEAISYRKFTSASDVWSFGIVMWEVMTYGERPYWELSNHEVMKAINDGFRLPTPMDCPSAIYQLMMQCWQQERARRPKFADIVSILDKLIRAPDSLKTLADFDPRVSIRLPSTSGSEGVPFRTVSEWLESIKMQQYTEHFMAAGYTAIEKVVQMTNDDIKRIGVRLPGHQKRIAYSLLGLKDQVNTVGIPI
Excerpt: (§1) Flow cytometry was used to analyze the response of hSD5 IgG in identifying endogenous EphA2 molecules on the four strains of brain tumor cell lines. PC represents the use of commercial Ab to determine the expression of EphA2 on cancer cells; NC represents the control group with irreverent of the isotype IgG1 antibody. (FIG. 16B)
The hSD5 was used to identify endogenous EphA2 molecules on the four brain tumor cell lines by flow cytometry analysis. PC uses a commercial anti-EphA2 antibody, and NC is the control group with irreverent of the isotype IgG1.

[2] = target: T2, endogenous EphA2 molecules on cholagiocarcinoma cell lines (HuCCT1, ssp-25, RBE, TFK) and bladder cancer cell line (PC-3) (Homo sapiens, UniProt P29317); test: Flow cytometry binding on cholagiocarcinoma and bladder cancer cell lines; details: cholagiocarcinoma and bladder cancer cell lines (FIG. 17B)
T2 construct: endogenous in cells; host or cells: HuCCT1, ssp-25, RBE, TFK, PC-3
T2 sequence (P29317 24-976): as the sequence (P29317 24-976, stated change not applied) above
Excerpt: Flow cytometry was used to analyze the response of hSD5 IgG with different concentrations in identifying endogenous EphA2 molecules on the four strains of cholagiocarcinoma cell lines and bladder cancer cell line. PC represents the use of commercial Ab to determine the expression of EphA2 on cancer cells.

BxPc-3 cells = test: Antibody internalization (endocytosis) assay; type: cell-based, human; details: BxPc-3, 1 h, 37° C. vs 4° C. (FIG. 6B)
Protocol: BxPc-3 cells were seeded on cover glasses placed in the wells of a 6-well culture plate. The BxPc-3 seeded glass slides were incubated with ephrin A1-Fc (Sino Biological) or IgG hSD5 for 1 h at 37° C. or 4° C. After washing with PBS, the cells were fixed with 100% ice methanol for 10 min. Next, the cells were stained with an FITC-conjugated anti-human Fc antibody and were subsequently mounted with ProLong Diamond Antifade Mountant comprising 4′,6-diamidino-2-phenylindole for nuclear counterstaining (Invitrogen). The cells were imaged using a confocal microscope (Leica Microsystems).

[3] = system: EphA2pep_P1 and EphA2pep_P2 synthetic peptides; test: Dot blot assay with synthetic peptides; type: binding; details: dot blot (FIG. 9B)
Excerpt: We used peptide enzyme-linked immunosorbent assay (ELISA) to identify the designed epitope on EphA2; the BSA-conjugated peptides EphA2pep_P1 (BSA-[…]) and EphA2pep_P2 (BSA-[…]) each represent the two segments of the linear epitope designed on EphA2. EphA2pep_PIP2 (BSA-[…]) represents the two linear epitope sequences connected by a linker. These peptides were synthesized and conjugated with BSA (Kelowna International Scientific). The BSA-conjugated peptides were individually coated on a 96-well microplate at 4° C. overnight. After the wells were blocked with 3% BSA, IgG hSD5 was added and incubated. Next, an HRP-conjugated anti-HA tag antibody (Cell Signaling Technology) was used to detect bound scFv. Finally, the TMB substrate was added for development, and the reaction was stopped by adding 1 N HCl. Absorbance was measured by determining the OD at 450 nm. A dot blot assay was used to detect the binding of IgG hSD5 to the synthesized peptides; […] of individual peptides (1 mg/mL; in triplicate) were dropped on the NC membrane and maintained at RT for complete absorption. Blocking with 3% BSA was performed at RT for 1 h. Then, IgG hSD5 (10 μg/mL) was added, and the reaction was allowed to proceed for 1 h at RT. After the membrane was washed, the HRP-conjugated anti-HA tag antibody was added, and the reaction was allowed to proceed for 1 h at RT. […]

[4] = target: T3, endogenous EphA2 molecules on three strains of gastric cancer cells (Homo sapiens, UniProt P29317); test: Flow cytometry binding on gastric cancer cells; details: flow cytometry (FIG. 15A)
T3 construct: identify endogenous EphA2 molecules on three strains of gastric cancer cells; endogenous in cells
T3 sequence (P29317 24-976): as the sequence (P29317 24-976, stated change not applied) above
Excerpt: as §1, with “three” for “four”, “gastric cancer” for “brain tumor”, “antibody. The hSD5 was used to identify endogenous EphA2 molecules on three strains of gastric cancer cells by flow cytometry analysis. […]” for “antibody.”, “15A)” for “16B)”

SNU-16, N87 and MKN-45 = test: MTS growth inhibition, gastric cancer cells; type: cell-based; details: 3 days (FIG. 15B)
Protocol: The growth inhibitory effect of hSD5-ADC on the three strains of gastric cancer cells were tested under different concentrations. At indicated concentrations interacted with the cancer cells for 3 days, and the effects on the growth of cancer cells were observed by MTS assay. […] (FIG. 15B)

B1: IgG hSD5: complete humanized anti-EphA2 IgG (IgG1) of hSD5 (antibody, V domains shown)
VH: QVQLVESGGGLVQPGGSLRLSCAASGFTFSDYGMGWVRQAPGKGLEWVAGISAAGSFTPYGAAVKGRFTISRDNSKNTVYLQMNSLRAEDTAVYYCARIPSGYRAGEIYTWGQGTLVTVSS
VL: LTQPPSVSVSPGQTVRITCSGSSGSYGWYQQKSPGQAPVTLIYDNDKRPSGIPERFSGSSSGSTSTLTISGVQAEDEADYYCGSADSSTYVGMFGGGTKLTVL
binding response to EphA2 molecules on brain cancer cells [1]: significant binding response | binding response to EphA2 molecules on cancer cells [2]: significant binding response | endocytosis after targeting EphA2 (BxPc-3 cells): endocytosed from the cell membrane into the cytoplasm | binding reaction with EphA2pep_P1 compared with EphA2pep_P2 [3]: stronger | recognition of EphA2pep_P1 and EphA2pep_P2 [3]: can recognize both the antigen fragments | binding response to EphA2 molecules on gastric cancer cells [4]: significant binding response | growth inhibitory response of gastric cancer cells (SNU-16, N87 and MKN-45): does not provide ideal inhibition effect
